The values below come from PMC3510508, “Rbg1–Tma46 dimer structure reveals new functional domains and their role in polysome recruitment” (Nucleic Acids Research, 2012).

Substrate in data set [1]: Nc1nc2c(ncn2[C@@H]2O[C@H](COP(=O)(O)OP(=O)(O)OP(=O)(O)O)[C@@H](O)[C@H]2O)c(=O)[nH]1
Nature of the data set: malachite green phosphate release. Format: biochemical, Saccharomyces cerevisiae. The settings on record: 100 mM KCl, 50 mM Tris pH 7.5, 5 mM MgCl2, 37°C, 1 h, 20 μM protein. The text has this: malachite green phosphate release on Rbg1fl–Tma46_239–345 (Tma46Δα1)

Substrate in data set [2]: Nc1nc2c(ncn2[C@@H]2O[C@H](COP(=O)(O)OP(=O)(O)OP(=O)(O)O)[C@@H](O)[C@H]2O)c(=O)[nH]1
Kind of data set: malachite green phosphate release. The format is biochemical, Saccharomyces cerevisiae. As to conditions: 100 mM KCl, 50 mM Tris pH 7.5, 5 mM MgCl2, 37°C, 1 h, 20 μM protein. The text has this: malachite green phosphate release on Rbg1_1–294–Tma46_205–345 (ΔTGS)
This is another data set of the same source.

Substrate in data set [3]: Nc1nc2c(ncn2[C@@H]2O[C@H](COP(=O)(O)OP(=O)(O)OP(=O)(O)O)[C@@H](O)[C@H]2O)c(=O)[nH]1
Nature of the data set: malachite green phosphate release. Format: biochemical, Saccharomyces cerevisiae. As to conditions: 100 mM KCl, 50 mM Tris pH 7.5, 5 mM MgCl2, 37°C, 1 h, 20 μM protein. This is another data set of the same source.

For data set [4], the target named is T1, 6His-tagged full-length Rbg1 (yeast) (UniProt P39729).
T1 sequence: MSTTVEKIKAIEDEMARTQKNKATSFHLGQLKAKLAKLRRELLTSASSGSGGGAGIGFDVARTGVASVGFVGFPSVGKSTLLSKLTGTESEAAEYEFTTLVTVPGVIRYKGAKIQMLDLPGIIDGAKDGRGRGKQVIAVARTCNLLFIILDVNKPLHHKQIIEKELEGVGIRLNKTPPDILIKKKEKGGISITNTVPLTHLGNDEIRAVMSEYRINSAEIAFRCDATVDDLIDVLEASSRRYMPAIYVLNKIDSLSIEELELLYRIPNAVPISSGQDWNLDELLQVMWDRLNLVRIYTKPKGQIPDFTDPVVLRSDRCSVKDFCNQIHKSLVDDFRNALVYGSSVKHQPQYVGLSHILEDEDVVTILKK

A word on the Km: it is the substrate concentration at which the rate is half of its maximum. One may read the Vmax as the top rate of the reaction or transport when substrate is in excess. By kcat is commonly meant the maximal rate divided by the concentration of active sites.

B1: Rbg1fl–Tma46_239–345 (Tma46Δα1) (Saccharomyces cerevisiae S288C) (protein)
chain: MSTTVEKIKAIEDEMARTQKNKATSFHLGQLKAKLAKLRRELLTSASSGSGGGAGIGFDVARTGVASVGFVGFPSVGKSTLLSKLTGTESEAAEYEFTTLVTVPGVIRYKGAKIQMLDLPGIIDGAKDGRGRGKQVIAVARTCNLLFIILDVNKPLHHKQIIEKELEGVGIRLNKTPPDILIKKKEKGGISITNTVPLTHLGNDEIRAVMSEYRINSAEIAFRCDATVDDLIDVLEASSRRYMPAIYVLNKIDSLSIEELELLYRIPNAVPISSGQDWNLDELLQVMWDRLNLVRIYTKPKGQIPDFTDPVVLRSDRCSVKDFCNQIHKSLVDDFRNALVYGSSVKHQPQYVGLSHILEDEDVVTILKK
notes: 6His-tagged full-length Rbg1 with Tma46 residues 239-345 (lacks helix α1), expressed in E. coli; with Translation machinery-associated protein 46
As for B1, in data set [1], the Km was found to be 191.2 ± 26.6 µM, the Vmax worked out at 3.7e-05 µmol/min/mg and the kcat was determined as 3.33e-05 s⁻¹.

B2: Rbg1_1–294–Tma46_205–345 (ΔTGS) (Saccharomyces cerevisiae S288C) (protein)
chain: MSTTVEKIKAIEDEMARTQKNKATSFHLGQLKAKLAKLRRELLTSASSGSGGGAGIGFDVARTGVASVGFVGFPSVGKSTLLSKLTGTESEAAEYEFTTLVTVPGVIRYKGAKIQMLDLPGIIDGAKDGRGRGKQVIAVARTCNLLFIILDVNKPLHHKQIIEKELEGVGIRLNKTPPDILIKKKEKGGISITNTVPLTHLGNDEIRAVMSEYRINSAEIAFRCDATVDDLIDVLEASSRRYMPAIYVLNKIDSLSIEELELLYRIPNAVPISSGQDWNLDELLQVMWDRLNLV
notes: 6His-tagged Rbg1 lacking TGS domain (residues 1-294), co-expressed in E. coli with Tma46 205-345; with Translation machinery-associated protein 46
Take B2: in data set [2], the Km was 426.3 ± 165 µM, the maximal velocity (Vmax) turned out to be 1.66e-05 µmol/min/mg and the kcat was 1.33e-05 s⁻¹.

B3: Rbg1Δ175–243+Gly–Tma46_205–345 (ΔS5D2L) (Saccharomyces cerevisiae S288C; DEL175-243/INS174G) (protein)
chain: MSTTVEKIKAIEDEMARTQKNKATSFHLGQLKAKLAKLRRELLTSASSGSGGGAGIGFDVARTGVASVGFVGFPSVGKSTLLSKLTGTESEAAEYEFTTLVTVPGVIRYKGAKIQMLDLPGIIDGAKDGRGRGKQVIAVARTCNLLFIILDVNKPLHHKQIIEKELEGVGIRLNGPAIYVLNKIDSLSIEELELLYRIPNAVPISSGQDWNLDELLQVMWDRLNLVRIYTKPKGQIPDFTDPVVLRSDRCSVKDFCNQIHKSLVDDFRNALVYGSSVKHQPQYVGLSHILEDEDVVTILKK
notes: 6His-tagged Rbg1 with S5D2L domain (175-243) replaced by one Gly, co-expressed in E. coli with Tma46 205-345; with Translation machinery-associated protein 46
B3: in data set [3], the Km was 221.5 ± 159.2 µM, the Vmax came out at 1.57e-05 µmol/min/mg and the kcat was 1e-05 s⁻¹.

B4: Tma46_(205–345 I241A) (domain or fragment)
chain: EQKRLERESLEKQPKITLEEFIETERGKLDKSKLTPATIANFAQWKKDHVIAKINAEKKLSSKRKPTGREIILKMSAENKSFETDNADMPDDVTQGSAWDLTEFTDALKKADHQDDGGIKDYGDGSNPTFDIKKANSATLA
In data set [4], B4 gave a GTP hydrolysis (Malachite green), Vmax (nmol min^−1 mg^−1) of 0.0406 and a GTP hydrolysis (Malachite green), kcat of 3.83e-05 s⁻¹.

B5: Tma46_(205–345 W249A K250E) (domain or fragment)
chain: EQKRLERESLEKQPKITLEEFIETERGKLDKSKLTPITIANFAQAEKDHVIAKINAEKKLSSKRKPTGREIILKMSAENKSFETDNADMPDDVTQGSAWDLTEFTDALKKADHQDDGGIKDYGDGSNPTFDIKKANSATLA
In data set [4], B5 gave a GTP hydrolysis (Malachite green), Vmax (nmol min^−1 mg^−1) of 0.0345 and a GTP hydrolysis (Malachite green), kcat of 3.33e-05 s⁻¹.

B6: Tma46_(205–345 I241A, F246A) (domain or fragment)
chain: EQKRLERESLEKQPKITLEEFIETERGKLDKSKLTPATIANAAQWKKDHVIAKINAEKKLSSKRKPTGREIILKMSAENKSFETDNADMPDDVTQGSAWDLTEFTDALKKADHQDDGGIKDYGDGSNPTFDIKKANSATLA
In data set [4], B6 had a GTP hydrolysis (Malachite green), Vmax (nmol min^−1 mg^−1) of 0.0288 and a GTP hydrolysis (Malachite green), kcat of 2.83e-05 s⁻¹.
